# Results as given in patent US20250049852A1 (SHANGHAI IASO BIOTECHNOLOGY, published 2025).
# T1: Biotinylated Recombinant human BAFFR Protein (human, UniProt Q96RJ3 7-71, limits assumed, biotinylated)
# T1 construct: The label says that it carries a his tag; also called BAFFR-his-Bio
# T1 sequence (looked up): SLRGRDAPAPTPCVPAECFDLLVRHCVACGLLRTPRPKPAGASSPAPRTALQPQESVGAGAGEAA
# T2: murine-derived GPRC5D overexpressed on CHOS cells (CHOS-mouseGPRC5D) (mouse (murine-derived), UniProt Q9JIL6 1-344)
# T2 construct: whole, on cells; also called GPRC5D murine-derived positive cell line
# T2 sequence (looked up): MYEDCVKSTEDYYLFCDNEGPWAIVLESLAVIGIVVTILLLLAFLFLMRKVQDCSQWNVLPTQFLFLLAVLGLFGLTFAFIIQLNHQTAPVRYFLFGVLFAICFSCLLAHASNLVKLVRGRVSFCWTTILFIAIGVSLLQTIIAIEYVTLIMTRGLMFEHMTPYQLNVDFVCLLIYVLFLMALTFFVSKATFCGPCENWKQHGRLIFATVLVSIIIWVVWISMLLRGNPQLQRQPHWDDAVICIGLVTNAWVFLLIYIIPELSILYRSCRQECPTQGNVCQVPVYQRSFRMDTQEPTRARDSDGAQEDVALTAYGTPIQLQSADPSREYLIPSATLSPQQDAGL
# What was measured:
# [1] = target: T3, human GPRC5D expressed on the cell surface (CHO-K1-GPRC5D cells; MM1S, U266, 8226, H929 cells) (human, UniProt Q9NZD1 1-345); assay: cell-based or functional assay
# [2] = target: T3, human GPRC5D expressed on the cell …; assay: cell-based or functional assay; remark: listed apart in the source
# [3] = target: T3, human GPRC5D expressed on the cell …; assay: cell-based or functional assay; remark: listed apart in the source
# Human GPRC5D Protein-VLP [4] = target: T4, Human GPRC5D Protein-VLP (human, UniProt Q9NZD1 1-345); assay: phage ELISA, coated antigen, detection anti-M13 then HRP anti-mouse IgG
# T4 construct: Bought reagent; also called GPRC5D-VLP; target antigen
# [5] = target: T1, Biotinylated Recombinant human BAFFR …; assay: as above
# [6] = target: T5, Biotinylated Human IL-10 Protein (human, UniProt P22301 19-178, biotinylated); assay: as above
# T5 construct: also called IL10-Bio
# Streptavidin [7] = target: T6, Streptavidin (UniProt P22629 37-163, limits assumed); assay: as above
# T6 construct: also called SA
# [8] = target: T3, human GPRC5D expressed on the cell …; assay: FACS titration (300 nM to 0.00384 nM) on CHO-K1-GPRC5D cells
# [9] = target: T2, murine-derived GPRC5D overexpressed on …; assay: FACS titration on CHOS-mouse-GPRC5D cells (lower graph)
# [10] = target: T7, monkey-derived GPRC5D overexpressed on CHOS cells (CHOS-macaqueGPRC5D) (macaque (monkey-derived)); assay: FACS titration on CHOS-macaque-GPRC5D cells (upper graph)
# T7 construct: whole, on cells; also called CHOS-macaqaueGPRC5D; GPRC5D monkey-derived positive cell line
# Human GPRC5D Protein-VLP [11] = target: T4, Human GPRC5D Protein-VLP; assay: ELISA, coated antigen, purified IgG-form antibody, detection HRP anti-human IgG
# [12] = target: T1, Biotinylated Recombinant human BAFFR …; assay: as above
# [13] = target: T5, Biotinylated Human IL-10 Protein; assay: as above
# Streptavidin [14] = target: T6, Streptavidin; assay: as above
# [15] = target: T1, Biotinylated Recombinant human BAFFR …; assay: ELISA, coated antigen, detection HRP anti-human IgG
# [16] = target: T5, Biotinylated Human IL-10 Protein; assay: as above
# Streptavidin [17] = target: T6, Streptavidin; assay: as above
# T6 sequence (P22629 37-163 limits assumed): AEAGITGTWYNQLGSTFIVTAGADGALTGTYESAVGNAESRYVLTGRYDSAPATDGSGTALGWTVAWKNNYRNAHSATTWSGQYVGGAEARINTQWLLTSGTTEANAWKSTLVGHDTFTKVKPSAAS
# T5 sequence (P22301 19-178 limits assumed): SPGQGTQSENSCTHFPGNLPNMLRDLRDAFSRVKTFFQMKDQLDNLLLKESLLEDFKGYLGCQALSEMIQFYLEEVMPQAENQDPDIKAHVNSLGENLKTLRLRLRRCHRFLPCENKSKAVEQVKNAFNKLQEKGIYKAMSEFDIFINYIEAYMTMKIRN
# T3 sequence (Q9NZD1 whole entry): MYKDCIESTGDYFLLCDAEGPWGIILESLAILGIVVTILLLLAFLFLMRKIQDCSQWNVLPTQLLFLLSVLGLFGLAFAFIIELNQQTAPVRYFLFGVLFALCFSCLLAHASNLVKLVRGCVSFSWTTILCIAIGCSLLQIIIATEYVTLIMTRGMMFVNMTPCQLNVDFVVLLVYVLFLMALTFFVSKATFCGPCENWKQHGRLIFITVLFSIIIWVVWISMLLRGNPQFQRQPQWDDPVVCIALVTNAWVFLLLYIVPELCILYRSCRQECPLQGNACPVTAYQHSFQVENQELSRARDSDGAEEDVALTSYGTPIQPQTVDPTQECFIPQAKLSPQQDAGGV
# T4 sequence (Q9NZD1 whole entry): as above
binder,measurement,setting,value
"CAR 2254 (Benchmark1), on CAR-T cells (other) GSQVQLVQSGAEVKKPGASVKVSCKASGYSFTGYTMNWVRQAPGQGLEWMGLINPYNSDTNYAQKLQGRVTMTTDTSTSTAYMELRSLRSDDTAVYYCARVALRVALDYWGQGTLVTVSSGGGGSGGGGSGGGGSDIQMTQSPSSLSASVGDRVTITCKASQNVATHVGWYQQKPGKAPKRLIYSASYRYSGVPSRFSGSGSGTEFTLTISNLQPEDFATYYCQQYNRYPYTFGQGTKLEIKSRFVPVFLPAKPTTTPAPRPPTPAPTIASQPLSLRPEACRPAAGGAVHTRGLDFACDIYIWAPLAGTCGVLLLSLVITLYCNHRNKRGRKKLLYIFKQPFMRPVQTTQEEDGCSCRFPEEEEGGCELRVKFSRSADAPAYQQGQNQLYNELNLGRREEYDVLDKRRGRDPEMGGKPRRKNPQEGLYNELQKDKMAEAYSEIGMKGERRRGKGHDGLYQGLSTATKDTYDALHMQALPPR",CD107a+/CAR+CD8+% after co-incubation with 8226 (GPRC5D+) cells,[1],45%
same,CD107a+/CAR+CD8+% after co-incubation with MM.1S (GPRC5D+) cells,[1],50.7%
same,CD107a+/CAR+CD8+% after co-incubation with U266 (GPRC5D+) cells,[1],9.68%
same,IFN-γ (IFN+/CAR+ %) after co-incubation with 8226-luc (GPRC5D+) cells,[2],25.1%
same,IFN-γ (IFN+/CAR+ %) after co-incubation with H929-luc (GPRC5D+) cells,[2],12.2%
same,IFN-γ (IFN+/CAR+ %) after co-incubation with MM1.s-luc (GPRC5D+) cells,[2],31.1%
same,IFN-γ (IFN+/CAR+ %) after co-incubation with U266-luc (GPRC5D+) cells,[2],5.25%
same,TNF-α (TNFα+/CAR+ %) after co-incubation with 8226-luc (GPRC5D+) cells,[2],12%
same,TNF-α (TNFα+/CAR+ %) after co-incubation with H929-luc (GPRC5D+) cells,[2],5.21%
same,TNF-α (TNFα+/CAR+ %) after co-incubation with MM1.s-luc (GPRC5D+) cells,[2],17.7%
same,TNF-α (TNFα+/CAR+ %) after co-incubation with U266-luc (GPRC5D+) cells,[2],1.12%
same,"Proliferation fold, 1st round stimulation by target cells 8226",[3],7.15 fold
same,"Proliferation fold, 2nd round stimulation by target cells 8226",[3],41.9 fold
same,"Proliferation fold, 3rd round stimulation by target cells 8226",[3],101 fold
same,"Proliferation fold, 4th round stimulation by target cells 8226",[3],172 fold
same,"Proliferation fold, 5th round stimulation by target cells 8226",[3],240 fold
same,"Proliferation fold, 6th round stimulation by target cells 8226",[3],321 fold
same,"Proliferation fold, 7th round stimulation by target cells 8226",[3],313 fold
"GPRC5D CAR 2436 (#39), on CAR-T cells (other) EVQLLESGGGLVQPGGSLRLSCAASGFIFSSYGMGWVRQAPGKGLEWVSSISSSGDYTYYADSVKGRFTISRDNSKNTLYLQMNSLRAEDTAVYYCARMSFRRYDHWGQGTLVTVSSFVPVFLPAKPTTTPAPRPPTPAPTIASQPLSLRPEACRPAAGGAVHTRGLDFACDIYIWAPLAGTCGVLLLSLVITLYCNHRNKRGRKKLLYIFKQPFMRPVQTTQEEDGCSCRFPEEEEGGCELRVKFSRSADAPAYQQGQNQLYNELNLGRREEYDVLDKRRGRDPEMGGKPRRKNPQEGLYNELQKDKMAEAYSEIGMKGERRRGKGHDGLYQGLSTATKDTYDALHMQALPPR",CD107a+/CAR+CD8+% after co-incubation with 8226 (GPRC5D+) cells,[1],76.5%
same,CD107a+/CAR+CD8+% after co-incubation with MM.1S (GPRC5D+) cells,[1],63.5%
same,CD107a+/CAR+CD8+% after co-incubation with U266 (GPRC5D+) cells,[1],78.8%
same,IFN-γ (IFN+/CAR+ %) after co-incubation with 8226-luc (GPRC5D+) cells,[2],54.8%
same,IFN-γ (IFN+/CAR+ %) after co-incubation with H929-luc (GPRC5D+) cells,[2],57.6%
same,IFN-γ (IFN+/CAR+ %) after co-incubation with MM1.s-luc (GPRC5D+) cells,[2],50.9%
same,IFN-γ (IFN+/CAR+ %) after co-incubation with U266-luc (GPRC5D+) cells,[2],49%
same,TNF-α (TNFα+/CAR+ %) after co-incubation with 8226-luc (GPRC5D+) cells,[2],45%
same,TNF-α (TNFα+/CAR+ %) after co-incubation with H929-luc (GPRC5D+) cells,[2],51.6%
same,TNF-α (TNFα+/CAR+ %) after co-incubation with MM1.s-luc (GPRC5D+) cells,[2],38.5%
same,TNF-α (TNFα+/CAR+ %) after co-incubation with U266-luc (GPRC5D+) cells,[2],42.5%
same,"Proliferation fold, 1st round stimulation by target cells 8226",[3],10.1 fold
same,"Proliferation fold, 2nd round stimulation by target cells 8226",[3],51.2 fold
same,"Proliferation fold, 3rd round stimulation by target cells 8226",[3],146 fold
same,"Proliferation fold, 4th round stimulation by target cells 8226",[3],330 fold
same,"Proliferation fold, 5th round stimulation by target cells 8226",[3],595 fold
same,"Proliferation fold, 6th round stimulation by target cells 8226",[3],1160 fold
same,"Proliferation fold, 7th round stimulation by target cells 8226",[3],2050 fold
"clone #18, single domain antibody displayed as monoclonal phage (phage level) (VHH, Tested as a monoclonal phage antibody (M13 display, detected with anti-M13); also called clone number 18) VHH: QVQLQQWGAGLLKPSETLSLTCAVYGGSFSGYYWSWIRQPPGKGLEWIGEINHSGSTNYNPSLKSRVTISVDTSKNQFSLKLSSVTAADTAVYYCARARRYGGRTRFDPWGQGTLVTVSS",binding result,Human GPRC5D Protein-VLP [4],binds
same,binding result,[5],no binding
same,binding result,[6],no binding
same,binding result,Streptavidin [7],no binding
"clone #39, single domain antibody displayed as monoclonal phage (phage level) (VHH, Tested as a monoclonal phage antibody (M13 display, detected with anti-M13); also called clone number 39) VHH: EVQLLESGGGLVQPGGSLRLSCAASGFIFSSYGMGWVRQAPGKGLEWVSSISSSGDYTYYADSVKGRFTISRDNSKNTLYLQMNSLRAEDTAVYYCARMSFRRYDHWGQGTLVTVSS",binding result,Human GPRC5D Protein-VLP [4],binds
same,binding result,[5],no binding
same,binding result,[6],no binding
same,binding result,Streptavidin [7],no binding
"clone #41, single domain antibody displayed as monoclonal phage (phage level) (VHH, Tested as a monoclonal phage antibody (M13 display, detected with anti-M13); also called clone number 41) VHH: EVQLLESGGGLVQPGGSLRLSCAASGFSFSGYIMGWVRQAPGKGLEWVSSTSSSGTETYYADSVKGRFTISRDNSKNTLYLQMNSLRAEDTAVYYCARYYSKYGRSYHVDSWGQGTLVTVSS",binding result,Human GPRC5D Protein-VLP [4],binds
same,binding result,[5],no binding
same,binding result,[6],no binding
same,binding result,Streptavidin [7],no binding
"Clone 18, antibody in the IgG form (protein level) (antibody, V domains shown, Expressed from an IgG expression plasmid in CHOS cells, purified by Protein A 'into the IgG form', detected with anti-human IgG Fc gamma; also called anti-GPRC5D IgG) VH: QVQLQQWGAGLLKPSETLSLTCAVYGGSFSGYYWSWIRQPPGKGLEWIGEINHSGSTNYNPSLKSRVTISVDTSKNQFSLKLSSVTAADTAVYYCARARRYGGRTRFDPWGQGTLVTVSS",EC50,[8],1.58 nM
same,TOP (MFI),[8],3460 MFI
same,EC50 (read off the curve),[9],~2 nM
same,EC50 (read off the curve),[10],~10 nM
same,binding result,Human GPRC5D Protein-VLP [11],binds
same,binding result,[12],no binding
same,binding result,[13],no binding
same,binding result,Streptavidin [14],no binding
"Clone 39, antibody in the IgG form (protein level) (antibody, V domains shown, Expressed from an IgG expression plasmid in CHOS cells, purified by Protein A 'into the IgG form', detected with anti-human IgG Fc gamma; also called anti-GPRC5D IgG) VH: EVQLLESGGGLVQPGGSLRLSCAASGFIFSSYGMGWVRQAPGKGLEWVSSISSSGDYTYYADSVKGRFTISRDNSKNTLYLQMNSLRAEDTAVYYCARMSFRRYDHWGQGTLVTVSS",EC50,[8],6.93 nM
same,TOP (MFI),[8],2800 MFI
same,binding result,[9],binds
same,binding result,Human GPRC5D Protein-VLP [11],binds
same,binding result,[12],no binding
same,binding result,[13],no binding
same,binding result,Streptavidin [14],no binding
"Clone 41, antibody in the IgG form (protein level) (antibody, V domains shown, Expressed from an IgG expression plasmid in CHOS cells, purified by Protein A 'into the IgG form', detected with anti-human IgG Fc gamma; also called anti-GPRC5D IgG) VH: EVQLLESGGGLVQPGGSLRLSCAASGFSFSGYIMGWVRQAPGKGLEWVSSTSSSGTETYYADSVKGRFTISRDNSKNTLYLQMNSLRAEDTAVYYCARYYSKYGRSYHVDSWGQGTLVTVSS",EC50,[8],41 nM
same,TOP (MFI),[8],3690 MFI
same,binding result,[9],binds
same,EC50 (read off the curve),[10],~7 nM
same,binding result,Human GPRC5D Protein-VLP [11],binds
same,binding result,[12],no binding
same,binding result,[13],no binding
same,binding result,Streptavidin [14],no binding
"Positive Benchmark1 Ab (GC5B596) (antibody, […] variable region from GC5B596 of CN 109715667 A. As positive control antibody it was detected with anti-human IgG, so it carried a human constant part; also called control antibody benchmark 1) scFv: GSQVQLVQSGAEVKKPGASVKVSCKASGYSFTGYTMNWVRQAPGQGLEWMGLINPYNSDTNYAQKLQGRVTMTTDTSTSTAYMELRSLRSDDTAVYYCARVALRVALDYWGQGTLVTVSSGGGGSGGGGSGGGGSDIQMTQSPSSLSASVGDRVTITCKASQNVATHVGWYQQKPGKAPKRLIYSASYRYSGVPSRFSGSGSGTEFTLTISNLQPEDFATYYCQQYNRYPYTFGQGTKLEIKSR",binding result,[15],no binding
same,binding result,[16],no binding
same,binding result,Streptavidin [17],no binding
